Measured values: patent US20240190985A1 (published 2024)
Numbering of substitutions follows the chain as printed. Names may count otherwise. Values belong to the binder of their own block, whether it stands above or below them.

How the values were obtained:
[1] = biological target: T1, SUMO-CD99 fusion protein (SUMO fused with the extracellular domain of CD99, residues 23-122) (UniProt P14209 23-122, biotin on the AviTag (BirA, in vitro)); experiment: bead-based titration (flow cytometry); apparent KD, nM Fv, scFv-Fc
T1 chain: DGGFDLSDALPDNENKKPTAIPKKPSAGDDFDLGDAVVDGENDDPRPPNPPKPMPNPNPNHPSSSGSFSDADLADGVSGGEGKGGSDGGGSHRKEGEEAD

[2] = biological target: T2, CD99 endogenously expressed on cells (Jurkat, KOPT-K1) (UniProt P14209 23-185, O-linked glycosylation (natural, on cells)); experiment: cell binding; apparent KD; nM Fv
T2 chain: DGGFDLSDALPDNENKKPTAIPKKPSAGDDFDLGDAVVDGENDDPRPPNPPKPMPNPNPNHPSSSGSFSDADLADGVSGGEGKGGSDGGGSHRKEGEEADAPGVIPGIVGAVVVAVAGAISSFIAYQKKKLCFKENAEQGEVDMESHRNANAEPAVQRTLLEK

[3] = biological target: T2, CD99 endogenously expressed on cells …; experiment: cell binding; apparent KD; nM molecule
[4] = biological target: T2, CD99 endogenously expressed on cells …; experiment: cell binding; apparent KD; nM Fv; avid
[5] = biological target: T2, CD99 endogenously expressed on cells …; experiment: cell binding; apparent KD; nM molecule; avid

B2: 10A1 Fab (Fab, V domains shown)
VH: QVQLQQSGPVLVKPSQTLSLTCAISGDSISSDTTAWSWIRRSPSRGLEWLGWTYYRSKWFNYYAVSVKGRVTINPDTSKNQFSLQLSSVTPEDTAVYYCARGNGNGGMDVWGQGTTVTVSS
VL: SYVLTQPASASVSPGQTARITCSGDALPKQYAYWYQQKPGQAPVLVIFKDSERPSGVPERFSGSSSGTTVTLTISGAQAEDEADYYCQSVDNSGFYQVFGGGTQLTVL
Kd [2]: > 250 nM | Kd [3]: > 250 nM

B3: 10A1 IgG-E345R (antibody)
heavy: QVQLQQSGPVLVKPSQTLSLTCAISGDSISSDTTAWSWIRRSPSRGLEWLGWTYYRSKWFNYYAVSVKGRVTINPDTSKNQFSLQLSSVTPEDTAVYYCARGNGNGGMDVWGQGTTVTVSSASTKGPSVFPLAPSSKSTSGGTAALGCLVKDYFPEPVTVSWNSGALTSGVHTFPAVLQSSGLYSLSSVVTVPSSSLGTQTYICNVNHKPSNTKVDKKVEPKSCDKTHTCPPCPAPEAAGGPSVFLFPPKPKDTLMISRTPEVTCVVVDVSHEDPEVKFNWYVDGVEVHNAKTKPREEQYNSTYRVVSVLTVLHQDWLNGKEYKCKVSNKALGAPIEKTISKAKGQPRRPQVYTLPPSREEMTKNQVSLTCLVKGFYPSDIAVEWESNGQPENNYKTTPPVLDSDGSFFLYSKLTVDKSRWQQGNVFSCSVMHEALHNHYTQKSLSLSPGK
light: SYVLTQPASASVSPGQTARITCSGDALPKQYAYWYQQKPGQAPVLVIFKDSERPSGVPERFSGSSSGTTVTLTISGAQAEDEADYYCQSVDNSGFYQVFGGGTQLTVLRTVAAPSVFIFPPSDEQLKSGTASVVCLLNNFYPREAKVQWKVDNALQSGNSQESVTEQDSKDSTYSLSSTLTLSKADYEKHKVYACEVTHQGLSSPVTKSFNRGEC
Kd [4]: 16 nM | Kd [5]: 8 nM

B5: 10A1 IgG-HCscFv (antibody)
heavy: QVQLQQSGPVLVKPSQTLSLTCAISGDSISSDTTAWSWIRRSPSRGLEWLGWTYYRSKWFNYYAVSVKGRVTINPDTSKNQFSLQLSSVTPEDTAVYYCARGNGNGGMDVWGQGTTVTVSSASTKGPSVFPLAPSSKSTSGGTAALGCLVKDYFPEPVTVSWNSGALTSGVHTFPAVLQSSGLYSLSSVVTVPSSSLGTQTYICNVNHKPSNTKVDKKVEPKSCDKTHTCPPCPAPEAAGGPSVFLFPPKPKDTLMISRTPEVTCVVVDVSHEDPEVKFNWYVDGVEVHNAKTKPREEQYNSTYRVVSVLTVLHQDWLNGKEYKCKVSNKALGAPIEKTISKAKGQPREPQVYTLPPSREEMTKNQVSLTCLVKGFYPSDIAVEWESNGQPENNYKTTPPVLDSDGSFFLYSKLTVDKSRWQQGNVFSCSVMHEALHNHYTQKSLSLSPGKSSGSSGSSSSSGSSSQVQLQQSGPVLVKPSQTLSLTCAISGDSISSDTTAWSWIRRSPSRGLEWLGWTYYRSKWFNYYAVSVKGRVTINPDTSKNQFSLQLSSVTPEDTAVYYCARGNGNGGMDVWGQGTTVTVSSGSSSSSSGSSGSSSSSYVLTQPASASVSPGQTARITCSGDALPKQYAYWYQQKPGQAPVLVIFKDSERPSGVPERFSGSSSGTTVTLTISGAQAEDEADYYCQSVDNSGFYQVFGGGTQLTVL
light: B3 light
Kd [4]: 5.3 nM | Kd [5]: 1.3 nM

Second part, the binder after the results:

Kd [1]: 14 nM
B1: clone 10 in the scFv-Fc format (Fc fusion)
chain: QVQLQQSGPVLVKPSQTLSLTCAISGDSVSSDTTAWSWIRQSPSRGLEWLGWTYYRSKWFNYYAVSVKSRVTINPDTSKNQFSLQLSSVTPEDTAVYYCARGNGNGGMDVWGQGTTVTVSSGILGSGGGGSGGGGSGGGGSSYVLTQPPSVSVSPGQTARITCSGDALPKQYAYWYQQKPGQAPVLVIFKDSERPSGIPERFSGSSSGTTVTLTISGVQAEDEADYYCQSADNSGFYQVFGGGTQLTVLSGSSSSLEGCKPCICTVPEVSSVFIFPPKPKDVLTITLTPKVTCVVVDISKDDPEVQFSWFVDDVEVHTAQTQPREEQFNSTFRSVSELPIMHQDWLNGKEFKCRVNSAAFPAPIEKTISKTKGRPKAPQVYTIPPPKEQMAKDKVSLTCMITDFFPEDITVEWQWNGQPAENYKNTQPIMDTDGSYFVYSKLNVQKSNWEAGNTFTCSVLHEGLHNHHTEKSLSHSPGKGGGGLNDIFEAQKIEWHESRHHHHHH

Kd [4]: 5.4 nM | Kd [5]: 2.7 nM
B4: 10A1 IgG-LALA (antibody)
heavy: B3 heavy with R349E
light: B3 light

Kd [4]: 6.2 nM | Kd [5]: 0.5 nM
B6: 10A1 IgG-RGY (antibody)
heavy: B3 heavy with E434G, S444Y
light: B3 light

Kd [1]: 18 nM
B7: clone 22 in the scFv-Fc format (Fc fusion)
chain: QVQLQQSGPGLVKPSQTLSLTCAISGDSVSSNSAAWNWIRQSPSRGLEWLGRTYYRSKWYNDYAVSVKSRITINPDTSKNQFSLQLNSVTPEDTAVYYCARGSYGSGLVWGQGTTVTVSSGSASAPTGILGSGGGGSGGGGSGGGGSNFMLTQPHSVSESPGKTVTISCTGSSGSIASNYVQWYQQRPGSAPTTVIYEDDQRPSGVPDRFSGSLDTSSNSASLTISGLRPEDEADYYCQSYDNKDNVVFGGGTKVTVLSGSSSSLEGCKPCICTVPEVSSVFIFPPKPKDVLTITLTPKVTCVVVDISKDDPEVQFSWFVDDVEVHTAQTQPREEQFNSTFRSVSELPIMHQDWLNGKEFKCRVNSAAFPAPIEKTISKTKGRPKAPQVYTIPPPKEQMAKDKVSLTCMITDFFPEDITVEWQWNGQPAENYKNTQPIMDTDGSYFVYSKLNVQKSNWEAGNTFTCSVLHEGLHNHHTEKSLSHSPGKGGGGLNDIFEAQKIEWHESRHHHHHH
